In patent publication US9266930:
Read-outs that look alike come from different tables or passages of the source.

Columns and labels:
HLA-A*1101 (Human) [1] = molecular target: HLA-A*1101 (Human)
[2] = molecular target: T1, HLA-DR5w12 (DRB1*1201) (human)
T1 chain 1: not shown
T1 chain 2: not shown

[3] = molecular target: T2, HLA-DR7 (DRB1*0701) (human)
T2 chain 1: not shown
T2 chain 2: not shown

[4] = molecular target: T3, HLA-DR8w2 (DRB1*0802) (human)
T3 chain 1: not shown
T3 chain 2: not shown

[5] = molecular target: T4, HLA-DRw53 (DRB4*0101) (human)
T4 chain 1: not shown
T4 chain 2: not shown

HLA-A*1101 (Human) [6] = molecular target: HLA-A*1101 (Human); remark: listed apart in the source
[7] = molecular target: T5, HLA-DR9 (DRB1*0901) (human)
T5 chain 1: not shown
T5 chain 2: not shown

[8] = molecular target: T6, HLA-DR6w19 (DRB1*1302) (human)
T6 chain 1: not shown
T6 chain 2: not shown

[9] = molecular target: HLA-DR3 (DRB1*0301) (human)
[10] = molecular target: HLA-DR4w15 (DRB1*0405) (human)
[11] = molecular target: HLA-DR1 (DRB1*0101) (human)
[12] = molecular target: HLA-DR4w4 (DRB1*0401) (human)
[13] = molecular target: HLA-DR5w11 (DRB1*1101) (human)
[14] = molecular target: HLA-DR2w2β2 (DRB5*0101) (human)
HLA-A*1101 (human) [15] = assay: competition with 125I-labelled standard peptide for purified HLA, gel filtration

NGDNGREGK (modifications not checked) [… (CSP 82)]
binding affinity ratio (IC50 of standard peptide / IC50 of test peptide) (HLA-A*1101 (Human) [1]): 0.0002

AGGLALLACAGLAYK (modifications not checked) [… (Pf SSP2 517)]
binding affinity ratio (IC50 of standard peptide / IC50 of test peptide) [2]: 0.0051 | binding affinity ratio (IC50 of standard peptide / IC50 of test peptide) [3]: 0.0009 | binding affinity ratio (IC50 of standard peptide / IC50 of test peptide) [4]: 0.0003 | binding affinity ratio (IC50 of standard peptide / IC50 of test peptide) [5]: -0.0005

GVSSKKKNK (modifications not checked)
binding affinity ratio (IC50 of standard peptide / IC50 of test peptide) (HLA-A*0301 (human)): 0.0001

CGNGIQVRIK (modifications not checked) [… (Pf CSP 377, A11 motif peptide)]
binding affinity ratio (IC50 of standard peptide / IC50 of test peptide) (HLA-A*1101 (Human) [6]): 0.0002

NLYNELEMNY (modifications not checked) [… (CSP 46)]
binding affinity ratio (IC50 of standard peptide / IC50 of test peptide) (HLA-A*1101 (Human) [1]): 0.0002

RHPFKIGSSDPADNA (modifications not checked) [… (Pf EXP 107)]
binding affinity ratio (IC50 of standard peptide / IC50 of test peptide) [2]: 0.0001 | binding affinity ratio (IC50 of standard peptide / IC50 of test peptide) [7]: 0.095 | binding affinity ratio (IC50 of standard peptide / IC50 of test peptide) [8]: 0.0003 | binding affinity ratio (IC50 of standard peptide / IC50 of test peptide) [3]: -0.0003 | binding affinity ratio (IC50 of standard peptide / IC50 of test peptide) [4]: 0.038

RDGNNEDNEK (modifications not checked) [… (P. falciparum CSP, position 95)]
binding affinity ratio (IC50 of standard peptide / IC50 of test peptide) (HLA-A*1101 (Human) [6]): 0.0002

LIDVHDLISDMIKKE (modifications not checked)
binding affinity ratio (IC50 of standard peptide / IC50 of test peptide) [9]: 0.01 | binding affinity ratio (IC50 of standard peptide / IC50 of test peptide) [10]: 0.0076

VKYLVIVFLIFFDLF (modifications not checked)
binding affinity ratio (IC50 of standard peptide / IC50 of test peptide) [11]: 0.0001 | binding affinity ratio (IC50 of standard peptide / IC50 of test peptide) [12]: 0.003

AGGLALLACAGLAYK (modifications not checked)
binding affinity ratio (IC50 of standard peptide / IC50 of test peptide) [12]: -0.0007 | binding affinity ratio (IC50 of standard peptide / IC50 of test peptide) [13]: -0.0002

CVEVEKTASCGVWDE (modifications not checked)
binding affinity ratio (IC50 of standard peptide / IC50 of test peptide) [11]: 0.0004 | binding affinity ratio (IC50 of standard peptide / IC50 of test peptide) [12]: 0.0021 | binding affinity ratio (IC50 of standard peptide / IC50 of test peptide) [10]: -0.0009 | binding affinity ratio (IC50 of standard peptide / IC50 of test peptide) [14]: -0.0005 | binding affinity ratio (IC50 of standard peptide / IC50 of test peptide) [13]: -0.0002

ILSVFFLALFFIIFN (modifications not checked)
binding affinity ratio (IC50 of standard peptide / IC50 of test peptide) [9]: -0.0008 | binding affinity ratio (IC50 of standard peptide / IC50 of test peptide) [10]: -0.0009 | binding affinity ratio (IC50 of standard peptide / IC50 of test peptide) [14]: 0.0091

LDYENDIEK (modifications not checked)
binding affinity ratio (IC50 of standard peptide / IC50 of test peptide) (HLA-A*1101 (Human) [1]): 0.0002

NGREGKDEDK (modifications not checked) [… (CSP 85)]
binding affinity ratio (IC50 of standard peptide / IC50 of test peptide) (HLA-A*1101 (Human) [1]): 0.0002

KGTGSGVSSK (modifications not checked) [… (P. falciparum EXP, position 27)]
binding affinity ratio (IC50 of standard peptide / IC50 of test peptide) (HLA-A*0301 (human)): 0.0005

NTRVLNELNY (modifications not checked) [… (CSP 31)]
binding affinity ratio (IC50 of standard peptide / IC50 of test peptide) (HLA-A*1101 (Human) [6]): 0.0002

GVSSKKKNKK (modifications not checked)
binding affinity ratio (IC50 of standard peptide / IC50 of test peptide) (HLA-A*0301 (human)): 0.0011

IFNKESLAEK (modifications not checked) [… (P. falciparum EXP, position 15)]
binding affinity ratio (IC50 of standard peptide / IC50 of test peptide) (HLA-A*0301 (human)): 0.0005

MKILSVFFLALFFII (modifications not checked) [… (Pf EXP 1)]
binding affinity ratio (IC50 of standard peptide / IC50 of test peptide) [2]: 0.0023 | binding affinity ratio (IC50 of standard peptide / IC50 of test peptide) [7]: 0.006 | binding affinity ratio (IC50 of standard peptide / IC50 of test peptide) [8]: 0.0019 | binding affinity ratio (IC50 of standard peptide / IC50 of test peptide) [3]: 0.036 | binding affinity ratio (IC50 of standard peptide / IC50 of test peptide) [4]: 0.0023

LGNVKYLVIVFLIFF (modifications not checked)
binding affinity ratio (IC50 of standard peptide / IC50 of test peptide) [11]: 0.0006 | binding affinity ratio (IC50 of standard peptide / IC50 of test peptide) [9]: -0.0008

SIQDSLKESR (modifications not checked)
binding affinity ratio (IC50 of standard peptide / IC50 of test peptide) (HLA-A*1101 (human) [15]): 0.0009

TVLLGGVGLVLYNTE (modifications not checked)
binding affinity ratio (IC50 of standard peptide / IC50 of test peptide) [11]: 0.49 | binding affinity ratio (IC50 of standard peptide / IC50 of test peptide) [10]: -0.0009 | binding affinity ratio (IC50 of standard peptide / IC50 of test peptide) [14]: -0.0005 | binding affinity ratio (IC50 of standard peptide / IC50 of test peptide) [13]: -0.0002

NDIEKKICK (modifications not checked) [NDIEKKIK (CSP 401)]
binding affinity ratio (IC50 of standard peptide / IC50 of test peptide) (HLA-A*1101 (Human) [6]): 0.0002

VVILTDGIPDSIQDS (modifications not checked) [… (Pf SSP2 157)]
binding affinity ratio (IC50 of standard peptide / IC50 of test peptide) [2]: 0.0001 | binding affinity ratio (IC50 of standard peptide / IC50 of test peptide) [3]: -0.0003 | binding affinity ratio (IC50 of standard peptide / IC50 of test peptide) [4]: -0.0003 | binding affinity ratio (IC50 of standard peptide / IC50 of test peptide) [5]: 0.0114

LDYENDIEKK (modifications not checked)
binding affinity ratio (IC50 of standard peptide / IC50 of test peptide) (HLA-A*1101 (Human) [1]): 0.0002

SVTCGKGTR (modifications not checked)
binding affinity ratio (IC50 of standard peptide / IC50 of test peptide) (HLA-A*1101 (human) [15]): 0.0009

AVPLAMKLIQQLNLN (modifications not checked) [… (Pf SSP2 68)]
binding affinity ratio (IC50 of standard peptide / IC50 of test peptide) [2]: 0.13 | binding affinity ratio (IC50 of standard peptide / IC50 of test peptide) [3]: 0.077 | binding affinity ratio (IC50 of standard peptide / IC50 of test peptide) [4]: 0.04 | binding affinity ratio (IC50 of standard peptide / IC50 of test peptide) [5]: 0.035

AGGIAGGLALLACAG (modifications not checked) [… (Pf SSP2 513)]
binding affinity ratio (IC50 of standard peptide / IC50 of test peptide) [2]: 0.0007 | binding affinity ratio (IC50 of standard peptide / IC50 of test peptide) [3]: -0.0003 | binding affinity ratio (IC50 of standard peptide / IC50 of test peptide) [4]: 0.0004 | binding affinity ratio (IC50 of standard peptide / IC50 of test peptide) [5]: -0.0005

LIDVHDLISDMIKKE (modifications not checked) [… (Pf EXP 47)]
binding affinity ratio (IC50 of standard peptide / IC50 of test peptide) [2]: 0.0001 | binding affinity ratio (IC50 of standard peptide / IC50 of test peptide) [7]: 0.043 | binding affinity ratio (IC50 of standard peptide / IC50 of test peptide) [8]: 0.0004 | binding affinity ratio (IC50 of standard peptide / IC50 of test peptide) [3]: 0.01 | binding affinity ratio (IC50 of standard peptide / IC50 of test peptide) [4]: 0.0096 | binding affinity ratio (IC50 of standard peptide / IC50 of test peptide) [5]: 0.094

EVNKRKSKY (modifications not checked) [… (P. falciparum EXP, position 66)]
binding affinity ratio (IC50 of standard peptide / IC50 of test peptide) (HLA-A*1101 (Human) [6]): 0.0002

IGPFMKAVCVEVEKT (modifications not checked) [… (Pf SSP2 227)]
binding affinity ratio (IC50 of standard peptide / IC50 of test peptide) [2]: 0.0038 | binding affinity ratio (IC50 of standard peptide / IC50 of test peptide) [7]: 0.082 | binding affinity ratio (IC50 of standard peptide / IC50 of test peptide) [8]: 0.0003 | binding affinity ratio (IC50 of standard peptide / IC50 of test peptide) [3]: 0.0019 | binding affinity ratio (IC50 of standard peptide / IC50 of test peptide) [4]: -0.0003 | binding affinity ratio (IC50 of standard peptide / IC50 of test peptide) [5]: 0.07

DGNNEDNEK (modifications not checked) [… (Pf CSP 96, A11 motif peptide)]
binding affinity ratio (IC50 of standard peptide / IC50 of test peptide) (HLA-A*1101 (Human) [6]): 0.0002

HDLISDMIKK (modifications not checked)
binding affinity ratio (IC50 of standard peptide / IC50 of test peptide) (HLA-A*0301 (human)): 0.0009

ANQLVVILTDGIPDS (modifications not checked) [… (Pf SSP2 153)]
binding affinity ratio (IC50 of standard peptide / IC50 of test peptide) [2]: 0.0003 | binding affinity ratio (IC50 of standard peptide / IC50 of test peptide) [7]: 0.042 | binding affinity ratio (IC50 of standard peptide / IC50 of test peptide) [8]: 0.007 | binding affinity ratio (IC50 of standard peptide / IC50 of test peptide) [3]: 0.0054 | binding affinity ratio (IC50 of standard peptide / IC50 of test peptide) [4]: -0.0002

HDLISDMIK (modifications not checked)
binding affinity ratio (IC50 of standard peptide / IC50 of test peptide) (HLA-A*0301 (human)): 0.0001

CGVWDEWSPCSVTCG (modifications not checked)
binding affinity ratio (IC50 of standard peptide / IC50 of test peptide) [11]: 0.0001 | binding affinity ratio (IC50 of standard peptide / IC50 of test peptide) [12]: -0.0007 | binding affinity ratio (IC50 of standard peptide / IC50 of test peptide) [14]: -0.0006 | binding affinity ratio (IC50 of standard peptide / IC50 of test peptide) [13]: -0.0002

WSPCSVTCGK (modifications not checked)
binding affinity ratio (IC50 of standard peptide / IC50 of test peptide) (HLA-A*1101 (human) [15]): 0.0002
